The data set concerns tet operator sequence. The experiment in a line: β-galactosidase activity of a tetracycline-regulated promoter in transformed E. coli with revTetR, in the presence and absence of anhydrotetracycline (atc). Format: cell-based, Escherichia coli. The following applies: for β-Galactosidase Activity, Cultured Without ATC: RevTetR isolate cultured in the absence of anhydrotetracycline (ATC); for β-Galactosidase Activity, Cultured With ATC: RevTetR isolate cultured in the presence of anhydrotetracycline (ATC). The essentials: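 TetR(BD) chimera mutants (TetR(B) residues 1–50, TetR(D) 51–208) expressed in E. coli regulating a tet operator-controlled lacZ. β-Galactosidase measured in Miller units at 28 °C and 37 °C with and without anhydrotetracycline; reported as percent of maximal expression without Tet repressor.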

B1: TetRrev96/99-7: revTetR(BD) G96L V99K (protein)
chain: MSRLDKSKVINSALELLNEVGIEGLTTRKLAQKLGVEQPTLYWHVKNKRALLDALAVEILARHHDYSLPAAGESWQSFLRNNAMSFRRALLRYRDLAKKHLGTRPDEKQYDTVETQLRFMTENGFSLRDGLYAISAVSHFTLGAVLEQQEHTAALTDRPAAPDENLPPLLREALQIMDSDDGEQAFLHGLESLIRGFEVQLTALLQIV
modifications: Modified tetracycline repressor
notes: revTetR(BD) G96L V99K
In the case of B1, the “β-Galactosidase Activity, Cultured Without ATC” value turned out to be 55.0127 and the “β-Galactosidase Activity, Cultured With ATC” value was found to be 13.224.

B2: TetRrev96/99-9: revTetR(BD) G96H V99N (protein)
chain: MSRLDKSKVINSALELLNEVGIEGLTTRKLAQKLGVEQPTLYWHVKNKRALLDALAVEILARHHDYSLPAAGESWQSFLRNNAMSFRRALLRYRDHAKNHLGTRPDEKQYDTVETQLRFMTENGFSLRDGLYAISAVSHFTLGAVLEQQEHTAALTDRPAAPDENLPPLLREALQIMDSDDGEQAFLHGLESLIRGFEVQLTALLQIV
modifications: Modified tetracycline repressor
notes: revTetR(BD) G96H V99N
In the case of B2, the “β-Galactosidase Activity, Cultured Without ATC” value came to 71.6829 and the “β-Galactosidase Activity, Cultured With ATC” value is listed as 14.528.

B3: TetRrev96/99-12: revTetR(BD) G96H V99Q (protein)
chain: MSRLDKSKVINSALELLNEVGIEGLTTRKLAQKLGVEQPTLYWHVKNKRALLDALAVEILARHHDYSLPAAGESWQSFLRNNAMSFRRALLRYRDHAKQHLGTRPDEKQYDTVETQLRFMTENGFSLRDGLYAISAVSHFTLGAVLEQQEHTAALTDRPAAPDENLPPLLREALQIMDSDDGEQAFLHGLESLIRGFEVQLTALLQIV
modifications: Modified tetracycline repressor
notes: revTetR(BD) G96H V99Q
For B3, the “β-Galactosidase Activity, Cultured Without ATC” value stood at 102.406 and the “β-Galactosidase Activity, Cultured With ATC” value was 18.841.

B4: TetRrev96/99-10: revTetR(BD) G96N V99P (protein)
chain: MSRLDKSKVINSALELLNEVGIEGLTTRKLAQKLGVEQPTLYWHVKNKRALLDALAVEILARHHDYSLPAAGESWQSFLRNNAMSFRRALLRYRDNAKPHLGTRPDEKQYDTVETQLRFMTENGFSLRDGLYAISAVSHFTLGAVLEQQEHTAALTDRPAAPDENLPPLLREALQIMDSDDGEQAFLHGLESLIRGFEVQLTALLQIV
modifications: Modified tetracycline repressor
notes: revTetR(BD) G96N V99P
For the molecule B4, the “β-Galactosidase Activity, Cultured Without ATC” value is given as 106.137 and the “β-Galactosidase Activity, Cultured With ATC” value is reported as 20.797.

B5: TetRrev96/99-8: revTetR(BD) G96N V99H (protein)
chain: MSRLDKSKVINSALELLNEVGIEGLTTRKLAQKLGVEQPTLYWHVKNKRALLDALAVEILARHHDYSLPAAGESWQSFLRNNAMSFRRALLRYRDNAKHHLGTRPDEKQYDTVETQLRFMTENGFSLRDGLYAISAVSHFTLGAVLEQQEHTAALTDRPAAPDENLPPLLREALQIMDSDDGEQAFLHGLESLIRGFEVQLTALLQIV
modifications: Modified tetracycline repressor
notes: revTetR(BD) G96N V99H
B5: the “β-Galactosidase Activity, Cultured Without ATC” value worked out at 103.657 and the “β-Galactosidase Activity, Cultured With ATC” value is given as 24.309.

B6: TetRrev96/99-11: revTetR(BD) G96R V99Y (protein)
chain: MSRLDKSKVINSALELLNEVGIEGLTTRKLAQKLGVEQPTLYWHVKNKRALLDALAVEILARHHDYSLPAAGESWQSFLRNNAMSFRRALLRYRDRAKYHLGTRPDEKQYDTVETQLRFMTENGFSLRDGLYAISAVSHFTLGAVLEQQEHTAALTDRPAAPDENLPPLLREALQIMDSDDGEQAFLHGLESLIRGFEVQLTALLQIV
modifications: Modified tetracycline repressor
notes: revTetR(BD) G96R V99Y
Take B6: the “β-Galactosidase Activity, Cultured Without ATC” value came to 97.6643 and the “β-Galactosidase Activity, Cultured With ATC” value stood at 18.656.
